Data: article PMC2733758 (The Journal of Cell Biology, 2009)

Molecular target: T1, GST∷CED-9(R211E, N212G) (C. elegans, UniProt P41958 1-280, R211E | N212G)
T1 sequence (looked up): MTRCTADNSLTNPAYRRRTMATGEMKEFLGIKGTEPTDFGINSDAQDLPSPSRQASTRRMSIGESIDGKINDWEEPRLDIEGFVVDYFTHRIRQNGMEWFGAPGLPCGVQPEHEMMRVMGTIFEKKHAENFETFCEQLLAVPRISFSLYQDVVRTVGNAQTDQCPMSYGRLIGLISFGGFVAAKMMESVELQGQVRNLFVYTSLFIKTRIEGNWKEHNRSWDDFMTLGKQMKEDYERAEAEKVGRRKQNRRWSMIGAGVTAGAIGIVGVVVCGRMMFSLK
Assay: pull-down

fold lower affinity than wild-type CED-9: 3 fold
B1: in vitro-translated, [35S]methionine-labeled FZO-1 protein (natural protein, C. elegans, UniProt Q23424 1-774, looked up)
chain: MSGTASLVHTLPASGDSNHRGLHSLKNSRRAADNEPLLRFREAKKVLGDVYGELKDNVAELEGVYKDIKENDFVSSEQREEIEAIGDSIKTIMDTFQRDNMKVVFFGRTSNGKSTTINAMLHEKVLPQGMGHTTCCFLQVEGSEGEVGHLQLDDNPQKIDMKMLGKIGHALSDENSDLPAMGQDSLLKVFHPKKSESGECRLLQNDVVILDSPGVDLSPEFDSWIDKHCLDADVFVLVSNAESTLTQAEKNFFLRVAKKLSKPNVFILNNRWDASAAETENIEDVKKQHLTRFRQFLVDELEVCSEREVNDRIFFVSSREVLESRLKARGLVQKAYQAEGHGTRALEFQNFERHFEHCISRSAIHTKFEAHNRRAHEMIGKMRLNLNSVLTSAAEQRSKLQNNLNESTRTFNECRVNFTQFEKAYREQTEQLRAEVHLKVSADFFEEIARLDAIIDRFEQPFDGSSSGMTKYKEDLAIFVDKCLSSDLEARCTGGLMSRIWNLENDMFQYVTKILAEPYQNKLEEVWRYRAPFKFSICVDVPALVNDFHEDLEFRFTFGLHAIIRRIIAYRSGQPVTAINTNLLTPLSLKQQSEKNSVRDAEASAASEEQAMMTQMVLTSAAFLANGSLGVLVVGGIVYKAVGWRVIAVGGAAYAGLYAWERMRWNSGAKEQHLKEQFRSHLAARMQQVSTAHTHHCETQAIREMDQVFDGLKATVGGVHREMKNDLDVQKTQIDAVDSTIRTLGTIKGKAVFLLRNLEQFASSYLRSDSPPTP
modifications: [35S]methionine-labeled
